Laboratory results as given in US20180094059A1.

Target: antigen- and TRAIL receptor-expressing Colo205 cells
Assay: flow cytometry, Colo205 cells

B1: scFvhu225-EHD2-scTRAIL3-… (protein)
chain: DYKDDDDKGGGGSGTEVQLVESGGGLVQPGGSLRLSCAASGFSLTNYGVHWVRQAPGKGLEWLGVIWSGGNTDYNTPFTSRFTISRDNSKNTLYLQMNSLRAEDTAVYYCARALTYYDYEFAYWGQGTTVTVSSGGGGSGGGGSGGGGSDIQLTQSPSFLSASVGDRVTITCRASQSIGTNIHWYQQKPGKAPKLLIKYASESISGVPSRFSGSGSGTEFTLTISSLQPEDFATYYCQQNNNWPTTFGAGTKLEIKRAAAGGSGGDFTPPTVKILQSSCDGGGHFPPTIQLLCLVSGYTPGTINITWLEDGQVMDVDLSTASTTQEGELASTQSELTLSQKHWLSDRTYTCQVTYQGHTFEDSTKKCADSNGGSGGASSGGGPQRVAAHITGTRGRSNTLSSPNSKNEKALGRKINSWESSRSGHSFLSNLHLRNGELVIHEKGFYYIYSQTYFRFQEEIKENTKNDKQMVQYIYKYTSYPDPILLMKSARNSCWSKDAEYGLYSIYQGGIFELKENDRIFVSVTNEHLIDMDHEASFFGAFLVGGGPQRVAAHITGTRGRSNTLSSPNSKNEKALGRKINSWESSRSGHSFLSNLHLRNGELVIHEKGFYYIYSQTYFRFQEEIKENTKNDKQMVQYIYKYTSYPDPILLMKSARNSCWSKDAEYGLYSIYQGGIFELKENDRIFVSVTNEHLIDMDHEASFFGAFLVGGGPQRVAAHITGTRGRSNTLSSPNSKNEKALGRKINSWESSRSGHSFLSNLHLRNGELVIHEKGFYYIYSQTYFRFQEEIKENTKNDKQMVQYIYKYTSYPDPILLMKSARNSCWSKDAEYGLYSIYQGGIFELKENDRIFVSVTNEHLIDMDHEASFFGAFLVG
With B1 the EC50 was 0.58 nM.

B2: dsDb3M6-scTRAIL3-… (protein)
chain: DYKDDDDKGGGGSGTEVQLLESGGGLVQPGGSLRLSCAASGFTFSHYVMAWVRQAPGKCLEWVSSISSSGGWTLYADSVKGRFTISRDNSKNTLYLQMNSLRAEDTAVYYCTRGLKMATIFDYWGQGTLVTVSSGGGGSQSALTQPASVSGSPGQSITISCTGTSSDVGSYNVVSWYQQHPGKAPKLIIYEVSQRPSGVSNRFSGSKSGNTASLTISGLQTEDEADYYCSSYAGSSIFVIFGCGTKVTVLAAAGGSGGGPQRVAAHITGTRGRSNTLSSPNSKNEKALGRKINSWESSRSGHSFLSNLHLRNGELVIHEKGFYYIYSQTYFRFQEEIKENTKNDKQMVQYIYKYTSYPDPILLMKSARNSCWSKDAEYGLYSIYQGGIFELKENDRIFVSVTNEHLIDMDHEASFFGAFLVGGGPQRVAAHITGTRGRSNTLSSPNSKNEKALGRKINSWESSRSGHSFLSNLHLRNGELVIHEKGFYYIYSQTYFRFQEEIKENTKNDKQMVQYIYKYTSYPDPILLMKSARNSCWSKDAEYGLYSIYQGGIFELKENDRIFVSVTNEHLIDMDHEASFFGAFLVGGGPQRVAAHITGTRGRSNTLSSPNSKNEKALGRKINSWESSRSGHSFLSNLHLRNGELVIHEKGFYYIYSQTYFRFQEEIKENTKNDKQMVQYIYKYTSYPDPILLMKSARNSCWSKDAEYGLYSIYQGGIFELKENDRIFVSVTNEHLIDMDHEASFFGAFLVG
For B2, the EC50 was 32.5 nM.
